The target in this assay is CH-296 retronectin fragment (UniProt P02751). The assay is described as follows: cell-based or functional assay.
Chain of UniProt P02751 (P02751 1361-2107): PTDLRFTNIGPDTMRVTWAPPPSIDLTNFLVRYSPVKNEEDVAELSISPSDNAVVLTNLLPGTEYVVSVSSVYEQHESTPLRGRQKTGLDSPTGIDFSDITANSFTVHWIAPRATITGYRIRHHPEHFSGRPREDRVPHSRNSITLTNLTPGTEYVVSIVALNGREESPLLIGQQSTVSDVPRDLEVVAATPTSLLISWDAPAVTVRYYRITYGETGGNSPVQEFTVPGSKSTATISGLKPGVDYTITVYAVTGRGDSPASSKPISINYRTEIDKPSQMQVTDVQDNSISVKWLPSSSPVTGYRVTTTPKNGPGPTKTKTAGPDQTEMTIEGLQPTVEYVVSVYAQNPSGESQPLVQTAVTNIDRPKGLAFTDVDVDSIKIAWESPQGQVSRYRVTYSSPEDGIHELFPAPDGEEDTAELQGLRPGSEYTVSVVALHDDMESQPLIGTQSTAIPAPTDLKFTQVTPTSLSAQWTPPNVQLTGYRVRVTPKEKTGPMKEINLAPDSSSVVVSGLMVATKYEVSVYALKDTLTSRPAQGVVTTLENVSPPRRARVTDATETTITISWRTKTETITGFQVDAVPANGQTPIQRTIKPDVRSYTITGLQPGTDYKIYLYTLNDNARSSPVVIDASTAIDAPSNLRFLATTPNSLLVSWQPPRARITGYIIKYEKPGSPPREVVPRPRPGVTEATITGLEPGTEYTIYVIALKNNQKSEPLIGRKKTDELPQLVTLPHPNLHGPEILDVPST

In turn, RD114/TR chimeric glycoprotein came in with a transduction efficiency of human CD34+ cells on retronectin-coated plates (% GFP+ cells) of 10 fold.

(Values after patent US20060257366A1.)
